Sequences and labels used below:
B1: VHH10 (VHH)
VHH: EVQLVESGGGLVQAGDSLRLSCAASGRAFSGYAMAWFRQAPEKEREFVAAITWRGGTPYYAVRAKGRFTISRDSAKNTAYLEVNSLKPEDTATYYCAAPSLQVATMDVKDYAYWGQGTLVTVSS
notes: TEV-cleavable tag
B2: VHH9 (VHH)
VHH: QVQLVESGGKLVQAGGSLRLSCAASGRSIVPYAMGWFRQAPGKEREFVAVIDWSGFRTYYADSVKGRFTISRDNAKNTVYLEMSSLKPEDTAVYYCAQAGYGLGYRIHANEYHYWGQGTQVTVSS
notes: TEV-cleavable tag; source: E. coli BL21(DE3), soluble, purified (Ni-NTA, gel filtration)
B3: VHH4 (VHH)
VHH: EVQLVESGGGLVQAGDSLRLSCTASGRNFIIYTLAWFRQAPGKEREFVAGISWSGGSTKYADPVKGRFTISRDNAKNTVYLQMNSLHSDDTGVYYCGAQRGATIDLKYGMESWGKGTQVTVSS
notes: TEV-cleavable tag
B4: VHH19 (VHH)
VHH: EVQLVESGGGSVQAGASLRLSCAASGFPFSHYAIGWFRQAPGKEREFVTSIDRSGINTYYADSVKGRFTISRDNAKNAVSLQMNSLKPDDTAVYYCAAGPRLVTSPELYPYWGQGTQVTVSS
notes: TEV-cleavable tag
B5: VHH21 (VHH)
VHH: EVQLVESGGGLVQTGGSLRLSCAASGRTFDSYFMGWFRQAPGKEREFVAAISGSGSLTSYEDGVKGRFTISRDNAKNTVSLQMTNLKPEDTAVYYCASCLSCAFINGRQVDSRYYNYWGQGTQVTVSS
notes: TEV-cleavable tag; Two cysteines within CDR 3 form an additional disulfide bond (confirmed by mass spectrometry)
B6: VHH13 (VHH)
VHH: EVQLVESGGGLVQPGGSLRLSCAASGSTFSINAMGWYRQAPGKQRELVAAISSGGSTNYADSVKGRFTISRDNAKNTVYLQMNSLKPEDTAVYYCNTINIGTFISLGGSPLGSWGQGTQVTVSS
notes: TEV-cleavable tag
B7: VHH18 (VHH)
VHH: EVQLVESGGGWVQTGGSLRLSCAASGSTFDIKRMAWYRQAPGKEREFVADIWSEGSTHYADSVKGRFTISRDSAKNTMYLYMNSLKPEDTAVYYCNVEYVLRTYWGQGTQVTVSS
notes: TEV-cleavable tag; CDR 1 and 2 identical to VHH16, CDR 3 distinct
B8: VHH22 (VHH)
VHH: EVQLVESGGGLVQAGGSLKLSCAASGRTFSGNTMGWFRQAPGKERELVTVVSSGGSTYYSDSVKGRFTISRDNALNTVYLQMNSLKPEDTAVYYCAAASLISGLTTTRRLFDYWGQGTQVTVSS
notes: TEV-cleavable tag
B9: VHH14 (VHH)
VHH: EVQLVESGGGLVQAGDSLRLSCTASARTFIKYAMGWFRQAPGKEREFVAAISWSGSRTTYADSVKGRFTISRDNDKNTVYLQMNTLEPEDTAIYYCAKAKGGYHSSQYDYDYWGQGTQVTVSS
notes: TEV-cleavable tag
B10: VHH17 (VHH)
VHH: EVQLVESGGGLVQAGGSLRLSCAASGRTFSAYAMGWFRQAPGKERELVAGISWSGGMTYYADSVKGRFTISRDNAKNMVYLQMNSLKAEDTAVYYCAGGFSAVVPDHPDEYHYWGQGTQVTVSS
notes: TEV-cleavable tag
B11: VHH15 (VHH)
VHH: EVQLVESGGGLVQAGGSLRLSCAASGRTSSIYVMAWFRQAPGKERELVAAISTSGNTVYPNSVKGRFTISRDNAKSTVYLQMNSLKPEDTAVYFCNADRTTYSSGRYSSQDYWGQGTQVTVSS
notes: TEV-cleavable tag
B12: VHH20 (VHH)
VHH: EVQLVESGGGSVQAGGSLRLSCVASGIAFSESPMAWYRQAPGRQREFVADVSADNKPYYRDTLKGRFTISRDNDKNSVYLQMNFLQPEDTAVYYCNALLLEAGTIKNYWGQGTQVTVSS
notes: TEV-cleavable tag
B13: VHH2 (VHH)
VHH: QVQLVESGGGSVQPGGSLRLSCAASGSIVGHAVQAWYRQAPGKQRDLVAQLFDNGKTNIADSVKGRFTISGDNAKNTFYLQMNNLKPEDTAIYYCAILILPSMGVPPNIYEGQGTQVTVSS
notes: TEV-cleavable tag; source: E. coli BL21(DE3), purified (Ni-NTA, gel filtration)
B14: VHH16 (VHH)
VHH: QVQLVESGGGWVQTGGSLRLSCAASGSTFDIKRMAWYRQAPGKEREFVADIWSEGSTHYADSVKGRFTISRDSAKNTMYLQMNSLKPEDTAAYYCNVGNTWGQGTQVTVSS
notes: TEV-cleavable tag; CDR 1 and 2 identical to VHH18, CDR 3 distinct
B15: extracellular region of CD80 (residues 35-235) (domain or fragment, human, UniProt P33681 35-235, looked up)
chain: VIHVTKEVKEVATLSCGHNVSVEELAQTRIYWQKEKKMVLTMMSGDMNIWPEYKNRTIFDITNNLSIVILALRPSDEGTYECVVLKYEKDAFKREHLAEVTLSVKADFPTPSISDFEIPTSNIRRIICSTSGGFPEPHLSWLENGEELNAINTTVSQDPETELYAVSSKLDFNMTTNHSFMCLIKYGHLRVNQTFNWNTTK
notes: CD80 (Cluster of differentiation 80, B7-1), human; construct 1-235 with the native signal peptide; final purified protein holds residues 35 to 235 after signal peptide cleavage; Glycosylated form; also called B7-1; source: expiCHO cells with kifunensine, secreted, purified (Ni-NTA, gel filtration)
B16: VHH4 (VHH)
VHH: B3 VHH
notes: The His6 tag is TEV-cleavable; also called anti-PD-L1 VHH 4
B17: VHH9 (VHH)
VHH: B2 VHH
notes: The His6 tag is TEV-cleavable; also called anti-PD-L1 VHH 9; source: E. coli BL21(DE3), soluble expression, purified (Ni-NTA, gel filtration)
B18: VHH15 (VHH)
VHH: B11 VHH
notes: The His6 tag is TEV-cleavable; also called anti-PD-L1 VHH 15

T1 sequence (Q9BQ51 20-220): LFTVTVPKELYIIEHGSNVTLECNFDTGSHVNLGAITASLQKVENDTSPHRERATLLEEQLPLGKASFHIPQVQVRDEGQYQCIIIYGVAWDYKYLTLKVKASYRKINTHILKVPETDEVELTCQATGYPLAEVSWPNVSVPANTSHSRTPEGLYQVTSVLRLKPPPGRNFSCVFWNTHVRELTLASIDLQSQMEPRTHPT

The first experiment has as its target T1, PD-L2-Fc (Generon) (Homo sapiens (assumed), UniProt Q9BQ51).
T1 construct: PD-L2 (programmed cell death 1 ligand 2), extracellular region; No catalogue number printed; also called extracellular region of PD-L2 with a Fc tag; source: bought: Generon
Nature of the experiment: BLI; PD-L2-Fc (2 ug/ml) on Protein G biosensors; VHHs at 10 uM; 25 C. The conditions noted are these: both partners purified. Background: Biolayer interferometry detects binding as a change in optical thickness at a sensor tip.
Consider B1, for which the binding result is reported as “no binding (tested: 10 μM)”.

For B2, the binding result is “no binding (tested: 10 μM)”.

In the case of B3, the binding result is recorded as “no binding (tested: 10 μM)”.

On to B4, for which the binding result is recorded as “no binding (tested: 10 μM)”.

Regarding B5, the binding result is reported as “no binding (tested: 10 μM)”.

On to B6, for which the binding result is given as “no binding (tested: 10 μM)”.

Take B7: the binding result is reported as “no binding (tested: 10 μM)”.

As for B8, the binding result was “no binding (tested: 10 μM)”.

As for B9, the binding result is “no binding (tested: 10 μM)”.

Take B10: the binding result is “no binding (tested: 10 μM)”.

B11: the binding result is on record as “no binding (tested: 10 μM)”.

As for B12, the binding result was “no binding (tested: 10 μM)”.

On to B13, for which the binding result is “no binding (tested: 10 μM)”.

Regarding B14, the binding result is listed as “no binding (tested: 10 μM)”.

The target of another experiment is T2, PD-L1 D1D2 (residues 18-237) (human, UniProt Q9NZQ7).
T2 construct: PD-L1 (programmed death-ligand 1, B7-H1, CD274), human, extracellular region D1D2, residues 18-237; also called extracellular region of PD-L1
T2 sequence (Q9NZQ7 18-237): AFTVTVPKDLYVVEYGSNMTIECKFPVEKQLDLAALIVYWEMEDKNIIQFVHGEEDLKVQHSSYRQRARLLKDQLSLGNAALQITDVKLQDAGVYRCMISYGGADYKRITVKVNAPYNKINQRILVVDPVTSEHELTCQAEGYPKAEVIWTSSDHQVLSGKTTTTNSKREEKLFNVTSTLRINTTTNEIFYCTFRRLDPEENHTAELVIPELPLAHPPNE
Nature of the experiment: BLI; biotinylated avitagged PD-1 (5 ug/ml) on streptavidin biosensors; 3 uM PD-L1 D1D2 alone or with 20 uM VHH; 25 C. The conditions noted are these: both partners purified.
B1: the “percent inhibition of PD-L1 D1D2 binding to PD-1 at 20 uM VHH” value (“percent inhibition of PD-L1 D1D2 binding” for short) was above 90%.

On to B2, for which the “percent inhibition of PD-L1 D1D2 binding” value is above 90%.

For B3, the “percent inhibition of PD-L1 D1D2 binding” value is above 90%.

In the case of B4, the “percent inhibition of PD-L1 D1D2 binding” value is above 90%.

In the case of B5, the “percent inhibition of PD-L1 D1D2 binding” value was above 90%.

As to B6, the “percent inhibition of PD-L1 D1D2 binding” value is above 90%.

For B7, the “percent inhibition of PD-L1 D1D2 binding” value was above 90%.

Take B8: the “percent inhibition of PD-L1 D1D2 binding” value was above 90%.

For the molecule B9, the “percent inhibition of PD-L1 D1D2 binding” value is above 90%.

Take B10: the “percent inhibition of PD-L1 D1D2 binding” value is above 90%.

Consider B11, for which the “percent inhibition of PD-L1 D1D2 binding” value is above 90%.

For the molecule B12, the “percent inhibition of PD-L1 D1D2 binding” value is above 90%.

On to B13, for which the “percent inhibition of PD-L1 D1D2 binding” value was above 90%.

For B14, the “percent inhibition of PD-L1 D1D2 binding” value was above 90%.

In a further experiment the target is T3, PD-L1 D1 (residues 18-134) (human, UniProt Q9NZQ7 18-134).
T3 construct: PD-L1 (programmed death-ligand 1, B7-H1, CD274), human, IgV-like domain D1, residues 18-134; Uniformly 15N/13C labelled for NMR; the sentence on constructs can be read as giving a C-terminal avitag to this construct too; also called PD-L D1
T3 sequence (Q9NZQ7 18-134): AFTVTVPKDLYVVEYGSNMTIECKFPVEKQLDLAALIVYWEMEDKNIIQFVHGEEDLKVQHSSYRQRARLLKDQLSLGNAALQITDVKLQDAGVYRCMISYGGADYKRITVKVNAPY
In words: NMR titration; chemical shift perturbation (minimal shift) mapping: labelled PD-L1 D1 free and with a 60% molar excess of CD80; 15N/1H TROSY; 25 C; 25 mM KH2PO4 pH 7.4, 25 mM NaCl, 10 uM EDTA. The conditions noted are these: both partners purified.
B15: the binding result is “binds”.

In another experiment the target is T4, PD-L1-Fc fusion protein (Homo sapiens, UniProt Q9NZQ7).
T4 construct: PD-L1 (programmed cell death 1 ligand 1, B7-H1, CD274) part of a bought PD-L1-Fc fusion protein; Probably the extracellular region; Held on Protein G biosensors by the Fc; also called programmed death-ligand 1; B7-H1; source: bought: Invitrogen
T4 sequence (Q9NZQ7 19-238): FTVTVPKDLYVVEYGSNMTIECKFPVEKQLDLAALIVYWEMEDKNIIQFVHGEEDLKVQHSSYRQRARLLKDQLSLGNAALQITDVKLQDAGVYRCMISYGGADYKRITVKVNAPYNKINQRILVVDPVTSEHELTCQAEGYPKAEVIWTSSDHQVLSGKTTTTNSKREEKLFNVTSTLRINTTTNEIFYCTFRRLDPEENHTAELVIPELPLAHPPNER
In words: BLI; PD-L1-Fc (5 ug/ml) loaded on Protein G biosensors, VHH in solution (10 uM to 0.3 nM); Octet QKe, 25 °C, PBS pH 7.4, 0.01% Tween-20, 0.1% BSA; kinetic analysis, global model 'association kinetics' in Prism 9. To be noted: both partners purified.
For the molecule B16, the Kd (as a rule, the concentration at which binding is half-saturated) turned out to be 48 nM; the off-rate constant (koff) (commonly the rate constant with which the complex falls apart) turned out to be 0.029 s⁻¹; the kon (as a rule, a measure of how fast the partners come together) turned out to be 590000 M⁻¹ s⁻¹.

The target of the next experiment is T4, PD-L1-Fc fusion protein. In words: BLI; PD-L1-Fc (5 ug/ml) loaded on Protein G biosensors, VHH in solution (10 uM to 0.3 nM); Octet QKe, 25 °C, PBS pH 7.4, 0.01% Tween-20, 0.1% BSA; steady-state analysis of the maximum responses, one-site specific-binding model in Prism 9. To be noted: both partners purified.
In turn, B17 registered a Kd of 0.7 nM.

The molecule B16 yielded a Kd of 59 nM.

B18: binding was characterised by a dissociation constant (Kd) of 9.2 nM.

For the origin of these results see publication PMC9811221 (The Journal of Biological Chemistry, 2022).
